From patent US20100210517A1 (RAPTOR PHARMACEUTICAL, published 2010)
Changes are numbered by the printed parent chain. Read-outs that look alike come from different tables or passages of the source.

Tests used:
LRP2 CR89 R1088D [1] = molecular target: T1, LRP2 CR89 R1088D (human, UniProt P98164 1022-1105); test: solid-phase binding assay, CR protein coated on plate, anti-RAP detection
T1 construct: also called YVWD

LRP2 CR89 V1047D [2] = molecular target: T2, LRP2 CR89 V1047D (human, UniProt P98164 1022-1105); test: solid-phase assay on coated CR protein, anti-RAP detection, A450
T2 construct: also called YDWR
T2 sequence: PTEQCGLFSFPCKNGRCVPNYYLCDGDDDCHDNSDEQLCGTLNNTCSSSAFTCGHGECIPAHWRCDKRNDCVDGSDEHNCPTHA
Experimental: (§1) Solid phase binding assays-Purified, refolded CR protein (1 μg) was bound to Nunc Maxisorp™ 96-well plates in TBS pH 8 supplemented with 5 mM CaCl₂ (TBSC) overnight at 4° C. Wells were washed with TBSC and then blocked with TBSC containing 2% bovine serum albumin (BSA). […] Control wells contained no added ligand. As an additional control, to determine whether the absence of calcium affected binding, 10 mM EGTA was included in the incubation medium for some samples. […] Excess primary antibody was removed and wells washed before incubation with the secondary antibody, HRP-conjugated goat anti rabbit IgG (Bio-Rad). After washing, TMB substrate solutions (Bio-Rad) were added to detect HRP. Color development was stopped with 1N HCl. Absorption at 450 nm was measured with a microplate spectrophotometer (Molecular Devices). Data were plotted and Kd values derived by non-linear regression with the assumption of single-site binding (GraphPad Prism).
(§2) To test this idea, mutant LRP2 CR89 were prepared in which the native, non-canonical residues at these positions were sequentially substituted with the non-native, canonical residues. As defined above, the A, C, A′, C′ string for LRP2 CR89 is YVWR. Mutants included LRP2 CR89 Y1042W (WVWR), LRP2 CR89 V1047D (YDWR), LRP2 CR89 R1088D (YVWD), LRP2 CR89 V1047D R1088D (YDWD), LRP2 CR89 Y1042W V1047D R1088D (WDWD), LRP2 CR89 Y1042W V1047D (WDWR), LRP2 CR89 Y1042W R1088D (WVWD).

LRP2 CR89 V1047D R1088D [3] = molecular target: T3, LRP2 CR89 V1047D R1088D (human, UniProt P98164 1022-1105); test: as above
T3 construct: also called YDWD
T3 sequence: T2 sequence with R68D
Experimental: as §1, §2

[4] = molecular target: T4, LRP2 CR89 Y1042W V1047D R1088D (human, UniProt P98164 1022-1105); test: as above
T4 construct: also called WDWD
T4 chain: T2 sequence with Y22W, R68D
Experimental: as §1, §2

LRP2 CR89 Y1042W V1047D [5] = molecular target: T5, LRP2 CR89 Y1042W V1047D (human, UniProt P98164 1022-1105); test: as above
T5 construct: also called WDWR
T5 chain: T2 sequence with Y22W
Experimental: as §1, §2

LRP2 CR89 Y1042W R1088D [6] = molecular target: T6, LRP2 CR89 Y1042W R1088D (human, UniProt P98164 1022-1105); test: as above
T6 construct: also called WVWD
T6 chain: T2 sequence with Y22W, D27V, R68D
Experimental: as §1, §2

LRP2 CR89 [7] = molecular target: T7, LRP2 CR89 (human, UniProt P98164 1025-1102); test: solid-phase assay on coated CR protein, single-site non-linear fit
T7 construct: domain: CR89; also called YVWR; L2 CR89; not shown: N-terminal hexahistidine and S-peptide tags of pET30(+)a
T7 sequence (P98164 1025-1102): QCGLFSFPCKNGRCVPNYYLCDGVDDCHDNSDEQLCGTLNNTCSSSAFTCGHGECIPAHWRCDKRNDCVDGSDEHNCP
Experimental: Data were plotted and fitted by non-linear regression with the assumption of a single binding site (GraphPad Prism). Kd values with standard deviations were derived from the regression analysis.
as §1

LRP2 CR89 [8] = molecular target: T7, LRP2 CR89; test: as above; remark: listed apart in the source
Experimental: as §1

LRP2 CR89 R1088D [9] = molecular target: T1, LRP2 CR89 R1088D; test: as above
Experimental: as §1

LRP1 CR3-5 = molecular target: T8, LRP1 CR3-5 (human); test: solid-phase assay; OD at the highest ligand concentration as percent of the highest OD of all ligands
T8 construct: range 852-973; also called L1 CR3-5
T8 sequence (Q07954 852-973): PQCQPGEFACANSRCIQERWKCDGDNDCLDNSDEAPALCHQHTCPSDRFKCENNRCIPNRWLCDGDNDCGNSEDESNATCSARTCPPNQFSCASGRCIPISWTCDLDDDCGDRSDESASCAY
Experimental: as §1

LRP2 CR89 [10] = molecular target: T7, LRP2 CR89; test: as above
Experimental: as §1

LRP2 CR89 [11] = molecular target: T7, LRP2 CR89; test: as above; remark: listed apart in the source
Experimental: as §1, §2

LRP2 CR89 V1047D [12] = molecular target: T2, LRP2 CR89 V1047D; test: as above
Experimental: as §1, §2

LRP2 CR89 V1047D R1088D [13] = molecular target: T3, LRP2 CR89 V1047D R1088D; test: as above
Experimental: as §1, §2

[14] = molecular target: T4, LRP2 CR89 Y1042W V1047D R1088D; test: as above
Experimental: as §1, §2

LRP2 CR89 Y1042W V1047D [15] = molecular target: T5, LRP2 CR89 Y1042W V1047D; test: as above
Experimental: as §1, §2

LRP2 CR89 Y1042W R1088D [16] = molecular target: T6, LRP2 CR89 Y1042W R1088D; test: as above
Experimental: as §1, §2

- fold loss of affinity relative to LRP2 CR89 (LRP2 CR89 R1088D [1]): ~2 fold
- binding result (LRP2 CR89 V1047D [2]): no binding (tested: 100 nM)
- binding result (LRP2 CR89 V1047D R1088D [3]): no binding (tested: 100 nM)
- binding result [4]: no binding (tested: 100 nM)
- binding result (LRP2 CR89 Y1042W V1047D [5]): no binding (tested: 100 nM)
- binding result (LRP2 CR89 Y1042W R1088D [6]): no binding (tested: 100 nM)
- Kd (LRP2 CR89 [7]): 38 nM
- Kd (LRP2 CR89 [8]): 33 nM
- Kd (LRP2 CR89 R1088D [9]): 78 nM
- % max (LRP1 CR3-5): 4%
- % max (LRP2 CR89 [10]): 88%
- % max bind (LRP2 CR89 [11]): 100%
- % max bind (LRP2 CR89 V1047D [12]): 11%
- % max bind (LRP2 CR89 V1047D R1088D [13]): 3%
- % max bind [14]: 1%
- % max bind (LRP2 CR89 Y1042W V1047D [15]): 3%
- % max bind (LRP2 CR89 Y1042W R1088D [16]): 4%
B1: MegaRAP1 d3 (ligand)
chain: LDRLRRVSHQGYTTEAKFEEPRVIDLWDLAQSANLTDKELEAFREELKYFKAKIEAHNHYQKQLEIAHEELRHAESVGDGERVSRSREKHALLEGRTKELGYTVKKHLQDLSGRISRAR
notes: V175L lies outside the d3 construct; also called RAPv2A d3; RAP v2 d3; not shown: N-terminal hexahistidine and S-peptide tags of pET30(+)a
